According to patent US20110014200A1:

Columns and labels:
[1] = target: gain-of-function TSHR mutant A623I (human) (UniProt P16473); test: cell-based or functional assay
[2] = target: gain-of-function TSHR mutant I486F (human) (UniProt P16473); test: cell-based or functional assay
[3] = target: gain-of-function TSHR mutant I568T (human) (UniProt P16473); test: cell-based or functional assay
[4] = target: gain-of-function TSHR mutant S281I (human) (UniProt P16473); test: cell-based or functional assay
[5] = target: wild-type human thyrotropin receptor (TSHR) (human) (UniProt P16473); test: cell-based or functional assay
[6] = target: wild-type human thyrotropin receptor (TSHR) (human) (UniProt P16473); test: inhibition of 125I-TSH binding to monolayers of cells expressing human TSHR

monoclonal antibody CS-17 (produced by hybridoma CS-17, ATCC accession number PTA-8174)
CS-17 concentration producing half-maximal inhibition (IC50) of constitutive cAMP [1]: 1 µg/mL
CS-17 concentration producing half-maximal inhibition (IC50) of constitutive cAMP [2]: 1 µg/mL
CS-17 concentration producing half-maximal inhibition (IC50) of constitutive cAMP [3]: 1 µg/mL
CS-17 concentration producing half-maximal inhibition (IC50) of constitutive cAMP [4]: 1 µg/mL
CS-17 concentration producing half-maximal inhibition (IC50) of constitutive cAMP [5]: 1 µg/mL
half maximal inhibitory concentration for TSHR constitutive activity (intracellular cAMP) [5]: 6.7 nM
inverse agonist activity at 10 µg/ml (percent) [5]: 60 to 90%
reduction of constitutive activity at 10 µg/ml (percent) [5]: > 60%
percent suppression of TSH binding at 10 µg/ml [6]: 35%
